Twelve sequences from the Immune Epitope Database (IEDB) can be followed below.

A value given as a limit tells only on which side of the number the result lay.

One may read the IC50 as the concentration that inhibits the measured activity by half.

One assay concerns the target HLA-A*68:02. As to the kind of experiment: IEDB peptide-MHC binding, cellular MHC/competitive/fluorescence; ≥ and ≤ were set here for values at or beyond the usual limits of such assays.
For assay [1], the target named is HLA-A*02:01. The assay can be described thus: IEDB peptide-MHC binding, purified MHC/competitive/radioactivity; ≥ and ≤ were set here for values at or beyond the usual limits of such assays.
Assay [2] has as its target HLA-A*02:02. Described as above.
The target in assay [3] is HLA-A*02:03. The assay is described as above.
In assay [4] the target is HLA-A*02:06. The description is as above.
Assay [5] addresses HLA-A*31:01. The assay is described as above. The settings on record: source organism: Vaccinia virus WR.
Another assay concerns the target HLA-A*03:01. As to the kind of experiment: IEDB peptide-MHC binding, cellular MHC/competitive/fluorescence; ≥ and ≤ were set here for values at or beyond the usual limits of such assays. Conditions: source organism: Hepatitis B virus.
The next assay addresses HLA-A*11:01. Described as above. Conditions: source organism: Hepatitis B virus.
In assay [6] the target is HLA-A*31:01. Described as above. Conditions: source organism: Hepatitis B virus.
The target of the next assay is HLA-A*68:01. Described as above. Conditions: source organism: Hepatitis B virus.
The target of assay [7] is HLA-A*02:03. Described as above. Conditions: source organism: Hepatitis B virus.
Assay [8] addresses HLA-A*02:01. The description is as above. Conditions: source organism: Hepatitis B virus.
Assay [9] addresses HLA-A*02:02. Described as above. The settings on record: source organism: Hepatitis B virus.
Assay [10] has as its target HLA-A*02:06. The description is as above. Conditions: source organism: Hepatitis B virus.
Where [11] appears, read: source organism: Vaccinia virus WR.
The mark [12] stands for this setting: source organism: Hepatitis B virus.

KLYIALCKV: the IC50 worked out at 16.6 µM in the assay with HLA-A*68:02 (setting [11]); 0.0067 µM in the assay with HLA-A*02:01 [1] (setting [11]); 0.016 µM in the assay with HLA-A*02:02 [2] (setting [11]); 0.0014 µM with HLA-A*02:03 [3] (setting [11]); 0.097 µM in the assay with HLA-A*02:06 [4] (setting [11]); 0.739 µM with HLA-A*31:01 [5].
Consider FLLAQFTSAI, for which the half-inhibitory concentration (IC50) with HLA-A*03:01 was 11.2 µM; in the assay with HLA-A*11:01 it was not below 70 µM; with HLA-A*31:01 [6], 16.1 µM; in the assay with HLA-A*68:01, 23.6 µM; with HLA-A*02:02 [2] (setting [12]), 0.0036 µM; with HLA-A*02:03 [3] (setting [12]), 0.00031 µM. In addition, the IC50 with HLA-A*02:06 [4] (setting [12]) worked out at 0.045 µM.
With ALMPLYACI, the IC50 in the assay with HLA-A*03:01 is not below 70 µM; with HLA-A*11:01 it was not below 70 µM; with HLA-A*31:01 [6], 50.3 µM; with HLA-A*68:01 it was not below 70 µM.
For the sequence GLLGWSPQA, the IC50 in the assay with HLA-A*03:01 was 14 µM; in the assay with HLA-A*11:01 it was not below 70 µM; with HLA-A*31:01 [6], 9.14 µM; with HLA-A*68:01, not below 70 µM; with HLA-A*68:02 (setting [12]), not below 70 µM; in the assay with HLA-A*02:02 [2] (setting [12]), 0.051 µM. In the assay with HLA-A*02:06 [4] (setting [12]), the IC50 came out at 1.05 µM.
On to NLSWLSLDV, for which the IC50 with HLA-A*03:01 was 9.22 µM; with HLA-A*11:01, not below 70 µM; with HLA-A*31:01 [6], 15.4 µM; with HLA-A*68:01, not below 70 µM; with HLA-A*68:02 (setting [12]), 28.4 µM; with HLA-A*02:02 [2] (setting [12]) it was 0.069 µM. Further, the half-inhibitory concentration (IC50) with HLA-A*02:03 [3] (setting [12]) was determined as 0.05 µM; with HLA-A*02:06 [4] (setting [12]), 2.74 µM.
As for YLVSFGVWI, the IC50 with HLA-A*03:01 is 15.2 µM; in the assay with HLA-A*11:01, not below 70 µM; with HLA-A*31:01 [6], not below 70 µM; with HLA-A*68:01, not below 70 µM; with HLA-A*68:02 (setting [12]), 38.2 µM; in the assay with HLA-A*02:01 [1] (setting [12]), 0.173 µM. Also, the IC50 in the assay with HLA-A*02:02 [2] (setting [12]) was found to be 0.14 µM; in the assay with HLA-A*02:03 [3] (setting [12]), 0.311 µM; in the assay with HLA-A*02:06 [4] (setting [12]), 1.84 µM.
On to LLVLLDYQGM, for which the IC50 with HLA-A*02:03 [7] is 5.58 µM; with HLA-A*03:01 it was 19.5 µM; with HLA-A*11:01, not below 70 µM; with HLA-A*31:01 [6], 7.26 µM; in the assay with HLA-A*68:01, not below 70 µM; in the assay with HLA-A*68:02 (setting [12]) it was 61.1 µM. Further, the figures for the IC50 with HLA-A*02:02 [2] (setting [12]) and with HLA-A*02:06 [4] (setting [12]) were 0.799 µM and 1.81 µM, respectively.
Consider SLYSILSPFL, for which the IC50 was 14.3 µM in the assay with HLA-A*03:01; not below 70 µM with HLA-A*11:01; 5.67 µM with HLA-A*31:01 [6]; 64 µM with HLA-A*68:01; 6.67 µM with HLA-A*68:02 (setting [12]); 0.0082 µM in the assay with HLA-A*02:01 [1] (setting [12]). For the same sequence, the IC50 was determined as 0.001 µM in the assay with HLA-A*02:02 [2] (setting [12]), 0.013 µM in the assay with HLA-A*02:03 [3] (setting [12]) and 0.076 µM with HLA-A*02:06 [4] (setting [12]).
In the case of VLLDYQGML, the half-maximal inhibitory concentration (IC50) in the assay with HLA-A*02:03 [7] was 22.6 µM; with HLA-A*03:01 it was not below 70 µM; with HLA-A*11:01, 35.2 µM; with HLA-A*31:01 [6], 12.8 µM; with HLA-A*68:01 it was not below 70 µM; with HLA-A*68:02 (setting [12]), not below 70 µM. Also, the IC50 in the assay with HLA-A*02:01 [1] (setting [12]) was determined as 0.081 µM; with HLA-A*02:02 [2] (setting [12]), 0.053 µM; with HLA-A*02:06 [4] (setting [12]) it was 0.679 µM.
Regarding PLLPIFFCL, the half-inhibitory concentration (IC50) with HLA-A*03:01 is not below 70 µM; with HLA-A*11:01, not below 70 µM; with HLA-A*31:01 [6] it was 9.87 µM; in the assay with HLA-A*68:01, 44.2 µM; with HLA-A*68:02 (setting [12]) it was 33.1 µM; with HLA-A*02:01 [1] (setting [12]), 0.111 µM. For the same sequence, the IC50 with HLA-A*02:02 [2] (setting [12]) worked out at 0.063 µM; with HLA-A*02:03 [3] (setting [12]), 0.637 µM; with HLA-A*02:06 [4] (setting [12]), 0.087 µM.
SMYPSCCCT: the IC50 is 6.43 µM with HLA-A*02:01 [8]; 10.3 µM in the assay with HLA-A*02:02 [9]; 5.52 µM in the assay with HLA-A*02:03 [7]; 9.31 µM with HLA-A*02:06 [10]; not below 70 µM in the assay with HLA-A*03:01; not below 70 µM in the assay with HLA-A*11:01. The IC50 with HLA-A*31:01 [6] is 68.4 µM; with HLA-A*68:01, not below 70 µM; with HLA-A*68:02 (setting [12]), not below 70 µM.
As for KVGAGAFGL, the IC50 with HLA-A*02:01 [8] was 11 µM; with HLA-A*02:02 [9], 9.12 µM; in the assay with HLA-A*02:03 [7], 34.7 µM; in the assay with HLA-A*03:01, 25 µM; in the assay with HLA-A*11:01, not below 70 µM; with HLA-A*31:01 [6] it was 12.6 µM. For the same sequence, the figures for the IC50 with HLA-A*68:01, with HLA-A*68:02 (setting [12]) and in the assay with HLA-A*02:06 [4] (setting [12]) were not below 70 µM, not below 70 µM and 1.14 µM, respectively.
